We go through 2 molecules from paper PMC2927720.

Series [1] concerns the target rGrh (Grainyhead, full-length recombinant) (UniProt P13002-2 1-1032). Description: EMSA. On the technique in general: Mobility shift assays separate free from complexed probe on a gel.
Series [2] has as its target rZld (Zelda, full-length recombinant) (UniProt Q9VWC6 1-1596). As to the kind of experiment: EMSA.

Chain of rZld (Zelda, full-length recombinant) (Q9VWC6 whole entry): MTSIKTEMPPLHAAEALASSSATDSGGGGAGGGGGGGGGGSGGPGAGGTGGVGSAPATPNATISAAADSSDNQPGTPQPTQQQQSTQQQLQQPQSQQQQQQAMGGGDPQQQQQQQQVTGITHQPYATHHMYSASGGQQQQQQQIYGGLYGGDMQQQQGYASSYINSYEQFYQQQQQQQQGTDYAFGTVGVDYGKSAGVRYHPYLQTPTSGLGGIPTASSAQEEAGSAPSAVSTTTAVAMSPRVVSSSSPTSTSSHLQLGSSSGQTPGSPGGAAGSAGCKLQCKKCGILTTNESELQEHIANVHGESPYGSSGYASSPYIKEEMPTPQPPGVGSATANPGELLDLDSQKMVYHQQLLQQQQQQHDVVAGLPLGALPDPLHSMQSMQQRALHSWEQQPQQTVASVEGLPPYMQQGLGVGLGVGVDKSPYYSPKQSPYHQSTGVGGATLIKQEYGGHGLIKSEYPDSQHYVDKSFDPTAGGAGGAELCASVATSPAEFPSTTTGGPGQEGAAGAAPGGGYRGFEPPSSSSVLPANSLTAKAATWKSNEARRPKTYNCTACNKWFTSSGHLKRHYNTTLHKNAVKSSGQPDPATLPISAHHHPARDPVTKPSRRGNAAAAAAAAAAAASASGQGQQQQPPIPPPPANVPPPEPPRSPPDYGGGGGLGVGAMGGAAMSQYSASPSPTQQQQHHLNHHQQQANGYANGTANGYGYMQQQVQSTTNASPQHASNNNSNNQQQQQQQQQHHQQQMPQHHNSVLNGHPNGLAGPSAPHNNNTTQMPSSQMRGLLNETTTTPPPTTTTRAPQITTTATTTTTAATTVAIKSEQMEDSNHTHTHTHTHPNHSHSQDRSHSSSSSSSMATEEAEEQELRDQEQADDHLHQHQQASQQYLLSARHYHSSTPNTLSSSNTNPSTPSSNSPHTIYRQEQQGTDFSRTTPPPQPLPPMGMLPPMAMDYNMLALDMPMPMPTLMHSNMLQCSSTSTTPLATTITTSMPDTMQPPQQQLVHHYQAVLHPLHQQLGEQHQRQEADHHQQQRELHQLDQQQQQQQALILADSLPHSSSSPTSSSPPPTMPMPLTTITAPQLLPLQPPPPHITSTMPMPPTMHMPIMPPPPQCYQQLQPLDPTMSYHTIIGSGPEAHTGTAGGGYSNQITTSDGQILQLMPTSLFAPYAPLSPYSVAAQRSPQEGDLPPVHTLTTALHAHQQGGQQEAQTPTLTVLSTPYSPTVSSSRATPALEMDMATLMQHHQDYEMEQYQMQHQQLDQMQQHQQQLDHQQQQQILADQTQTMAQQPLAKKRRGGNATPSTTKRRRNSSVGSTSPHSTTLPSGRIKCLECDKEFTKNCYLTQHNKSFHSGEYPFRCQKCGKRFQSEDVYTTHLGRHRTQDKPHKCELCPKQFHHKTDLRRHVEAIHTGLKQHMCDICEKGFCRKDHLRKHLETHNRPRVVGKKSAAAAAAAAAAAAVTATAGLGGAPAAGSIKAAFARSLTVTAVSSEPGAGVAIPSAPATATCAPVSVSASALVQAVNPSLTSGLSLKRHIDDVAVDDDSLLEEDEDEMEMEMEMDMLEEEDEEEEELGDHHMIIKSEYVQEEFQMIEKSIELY

B1: CAGGCAG probe (dsDNA)
DNA 1: CTATTCAGGCAGACACTGTA
DNA 2: TACAGTGTCTGCCTGAATAG
For B1, in series [1], the binding result is recorded as “binds”.

B2: CAGGTAG probe (dsDNA)
DNA 1: CTATTCAGGTAGACACTGTA
DNA 2: TACAGTGTCTACCTGAATAG
With B2, the binding result in series [2] and in series [1] was “binds” throughout.
